The source of these data is US20210355215A1.

This experiment concerns the target BsAb CD3-BCMA (human). The experiment can be described thus: 1 mL CH1-XL column, purified BsAb 5 mg/ml load, residence time 4 min, 10% breakthrough.

BsAb CD3-BCMA (human), sequence (heavy, as listed by the source, chain 1 of 3): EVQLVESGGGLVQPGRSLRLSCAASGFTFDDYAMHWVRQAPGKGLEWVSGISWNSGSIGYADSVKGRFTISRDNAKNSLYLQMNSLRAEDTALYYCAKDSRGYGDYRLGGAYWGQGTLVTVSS
BsAb CD3-BCMA (human), sequence (light, as listed by the source, chain 2 of 3): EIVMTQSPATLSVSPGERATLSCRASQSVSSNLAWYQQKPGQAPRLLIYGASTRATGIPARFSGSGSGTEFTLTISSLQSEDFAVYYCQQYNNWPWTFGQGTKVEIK
BsAb CD3-BCMA (human), sequence (heavy, as listed by the source, chain 3 of 3): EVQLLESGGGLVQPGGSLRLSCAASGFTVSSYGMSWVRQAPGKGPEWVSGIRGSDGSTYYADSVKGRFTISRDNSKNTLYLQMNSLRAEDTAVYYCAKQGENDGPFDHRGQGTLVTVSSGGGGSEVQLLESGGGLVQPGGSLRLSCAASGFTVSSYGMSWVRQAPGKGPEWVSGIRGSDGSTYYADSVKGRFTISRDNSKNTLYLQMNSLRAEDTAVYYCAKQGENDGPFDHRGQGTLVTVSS

In the case of “CaptureSelect CH1-XL affinity resin ligand (13 kDa llama heavy chain antibody fragment, Ig heavy chain CH1-specific nanobody) (VHH)”, the dynamic binding capacity was found to be 9.3 mg/mL.
